Patent US20080153773A1, “MODULATORS OF PHOSPHOTYROSYL PHOSPHATASE ACTIVATOR” (priority 2006, published 2008)

Key:
PP2A A-C dimer [1] = biological target: T1, PP2A A-C dimer (Homo sapiens, UniProt P67775); assay: pNPPase activity assay; type: biochemical; settings: for stimulation of pNPPase activity of PP2A by PTPA or PTPA mutant: FIG. 6B/6C
T1 construct: GST (N); His8 (N); made in house; C subunit: baculovirus / insect cells; dimer assembled in vitro
Experimental: (§1) The phosphatase activity using pNPP as substrate was performed on a 96-well plate. Briefly, 50 μl of 50 mM pNPP dissolved in 50 mM Tris-HCl (pH 8.2) buffer containing 1 mM DTT, 10 mM MgCl2 and 0.1 mg/ml BSA was added to each well. The reaction was initiated by addition of 10 μl of PP2A samples in the presence or absence of ATP and PTPA. The plate was incubated at 37° C. for 5-20 minutes and the enzymatic reaction product was measured by the absorbance at 405 nm using a plate reader.

[2] = test system: PTPA-PP2A A-C dimer complex; assay: ATPase activity assay (Malachite Green); type: biochemical, human; settings: for ATPase activity: with equi-molar amount of PP2A A-C dimer
Experimental: (§2) Protein samples were prepared in 100 mM NaCl, 20 mM HEPES, pH 7.5, and 2 mM dithiothreitol. The release of free phosphate group was measured by the calorimetric Malachite Green Reagent (BioAssay Systems, Hayward, Calif.) using NaH2PO4 as phosphate standard. The protein concentration was determined by a combination of OD absorption at 280 nm and Bio-Rad Protein Assay (Bio-Rad).

PP2A A-C dimer [3] = biological target: T1, PP2A A-C dimer; assay: Phosphorylase a phosphatase assay (pSer activity); type: biochemical
Experimental: (§3) To measure the phosphatase activity of PP2A, 5 μl of each PP2A sample was added to 45 μl of 0.5 mg/ml of radio-labeled ^32P-phosphorylase b dissolved in 50 mM MOPS buffer containing 1 mM DTT and 5 mM caffeine. Reactions were performed at 37° C. for 10 minutes, and stopped by addition of 10% TCA and 0.5 mg/ml BSA. Samples were kept on ice for 10 minutes to allow complete precipitation of proteins, and were centrifuged for 10 minutes at 14K rpm. Supernatants containing the released ^32P were added to 3 ml Ecosint and the intensity was measured by scintillation counter.

PP2A A-C dimer [4] = biological target: T1, PP2A A-C dimer; assay: GST-mediated pull-down assay; type: binding; settings: FIG. 4A; mutants compared with WT PTPA
Experimental: Approximately 30 μg of stoichiometric PP2A A-C dimer were bound to 30 μl of glutathione resin via GST-A protein. The resin was washed with 200 μl assay buffer 3 times to remove excess unbound PP2A. Then 10 μg of WT or mutant PTPA were allowed to bind the resin in a 125-μl volume. After washing 4 times with an assay buffer containing 25 mM Tris, pH 8.0, 150 mM NaCl, and 2 mM dithiothreitol (DTT), the remaining protein and resin were mixed with 15-μl SDS sample buffer and applied to SDS-PAGE. The results were visualized by SDS-polyacrylamide gel electrophoresis (SDS-PAGE) with coomassie staining.

PP2A A-C dimer [5] = biological target: T1, PP2A A-C dimer; assay: Substrate preference of PP2A (phosphorylase b versus pNPP); type: biochemical; settings: for shift of substrate preference of PP2A from phosphorylase b to pNPP: PTPA mutants, FIG. 6F
Experimental: as §1, §3

PP2A A-C dimer [6] = biological target: T1, PP2A A-C dimer; assay: Native polyacrylamide gel electrophoresis (native PAGE) binding; settings: quantification of native-PAGE, FIG. 4C; read-out: dissociation constant between PP2A A-C dimer and PTPA
Experimental: All assays were performed at 4° C. to offset heat generated by electrophoresis. 6% poly-acrylamide (37.5:1 acrylamide:bis-acrylamide) gels were used under the buffer condition of 65 mM Tris, pH 8.5, and 65 mM boric acid. All protein samples were prepared in a 40 μl volume containing 25 mM Tris, pH 8.0, 150 mM NaCl, 2 mM DTT, and 5% glycerol. After pre-running the gels for 15 minutes, half of each sample (20 μl) was loaded into each lane and was subjected to electrophoresis with constant electric field of 15 volts/cm. The gels were stained using coomassie blue, destained, and dried for photography. The gels were scanned by a densitometer, which allowed the estimate of the binding affinity between WT PTPA and PP2A A-C dimer.

[7] = biological target: T2, PTPA-PP2A A-C dimer complex (Homo sapiens, UniProt Q15257); assay: ATPase activity assay (Malachite Green); type: biochemical; settings: PTPA alone, without PP2A; 1 mM ATP and 5 mM Mg2+
T2 construct: His6 (C); GST (N); His8 (N); made in house; host or cells: PTPA: E. coli BL21(DE3), pET21b; PP2A C: baculovirus / insect cells
T2 sequence (Q15257 1-323 isoform Q15257-2): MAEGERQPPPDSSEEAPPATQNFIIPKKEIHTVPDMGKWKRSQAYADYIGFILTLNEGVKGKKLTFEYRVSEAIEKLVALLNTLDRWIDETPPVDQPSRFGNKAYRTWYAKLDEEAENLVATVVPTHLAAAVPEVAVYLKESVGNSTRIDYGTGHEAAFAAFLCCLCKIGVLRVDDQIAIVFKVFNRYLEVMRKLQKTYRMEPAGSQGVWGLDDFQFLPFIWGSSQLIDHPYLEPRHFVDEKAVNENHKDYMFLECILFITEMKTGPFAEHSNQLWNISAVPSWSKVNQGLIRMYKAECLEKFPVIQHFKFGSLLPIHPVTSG
Experimental: as §2

PP2A A-C dimer [8] = biological target: T1, PP2A A-C dimer; assay: Phosphotyrosine phosphatase assay using a fluorogenic peptide as the substrate; type: biochemical; settings: equi-molar PTPA and PP2A, with ATP/Mg2+, FIG. 6G
Experimental: A protein tyrosine phosphatase assay kit (EMD Biosciences) was used to measure phosphotyrosine phosphatase activity. 50 nM PP2A and PTPA, or PTPA mutants were added to a fluorogenic phosphopeptide substrate (MCA-Gly-Asp-Ala-Glu-pTyr-Ala-Ala-Lys(DNP)-Arg-NH2, 1 μM) and incubated at room temperature under very low light conditions. After 10 minutes of incubation, sodium vanadate solution was added to stop the reaction. […] The fluorescent intensity was monitored at 328 nm (excitation) and 395 nm (emission), using a Hitachi F2500 fluorescence spectrophotometer.

T1 sequence (P30153 whole entry partner): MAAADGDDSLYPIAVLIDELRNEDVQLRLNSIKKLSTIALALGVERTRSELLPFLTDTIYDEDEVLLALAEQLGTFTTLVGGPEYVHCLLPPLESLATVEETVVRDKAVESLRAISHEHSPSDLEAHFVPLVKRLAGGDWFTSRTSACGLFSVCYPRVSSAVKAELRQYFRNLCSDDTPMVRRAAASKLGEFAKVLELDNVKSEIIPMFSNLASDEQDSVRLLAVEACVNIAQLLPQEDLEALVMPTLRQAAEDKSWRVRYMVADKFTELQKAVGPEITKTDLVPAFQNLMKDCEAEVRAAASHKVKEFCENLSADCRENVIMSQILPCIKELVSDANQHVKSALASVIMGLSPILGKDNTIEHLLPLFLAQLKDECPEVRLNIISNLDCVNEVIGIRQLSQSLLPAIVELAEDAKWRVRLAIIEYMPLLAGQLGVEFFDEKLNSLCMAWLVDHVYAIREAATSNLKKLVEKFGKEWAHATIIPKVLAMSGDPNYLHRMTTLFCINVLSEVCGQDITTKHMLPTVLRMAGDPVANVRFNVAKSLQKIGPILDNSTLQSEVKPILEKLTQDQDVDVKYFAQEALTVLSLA
T1 sequence (P67775 whole entry): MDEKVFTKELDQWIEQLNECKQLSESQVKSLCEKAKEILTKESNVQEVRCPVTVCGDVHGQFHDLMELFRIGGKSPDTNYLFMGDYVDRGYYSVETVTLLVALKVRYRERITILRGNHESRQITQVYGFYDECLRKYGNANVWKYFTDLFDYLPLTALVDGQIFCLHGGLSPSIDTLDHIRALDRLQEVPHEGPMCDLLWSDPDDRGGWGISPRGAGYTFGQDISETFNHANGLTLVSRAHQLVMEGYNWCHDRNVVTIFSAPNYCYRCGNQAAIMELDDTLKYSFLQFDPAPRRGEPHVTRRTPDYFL

| Molecule | interaction with PP2A A-C dimer in GST-mediated pull-down (PP2A A-C dimer [4]) | ATPase activity ([2]; 1 mM ATP and 5 mM Mg2+) | stimulation of pTyr phosphatase activity of PP2A (peptide substrate) (PP2A A-C dimer [8]) | stimulation of pNPPase activity of PP2A by PTPA or PTPA mutant (PP2A A-C dimer [1]; with ATP/Mg2+) | shift of substrate preference of PP2A from phosphorylase b to pNPP (PP2A A-C dimer [5]) | also measured |
| --- | --- | --- | --- | --- | --- | --- |
| Nc1ncnc2c1ncn2[C@@H]1O[C@H](COP(=O)(O)OP(=O)(O)OP(O)(O)=S)[C@@H](O)[C@H]1O [ATPγS, reference compound] |  |  |  |  |  | stimulation of pNPPase activity of PP2A by ATP analog (PP2A A-C dimer [1]; provided to PP2A alone or in the presence of PTPA, FIG. 6B): fails to stimulate |
| C=C1[C@@H](O)[C@@H]2O[C@]3(CC[C@H](/C=C/[C@@H](C)[C@@H]4CC(C)=C[C@@]5(O[C@H](C[C@@](C)(O)C(=O)O)CC[C@H]5O)O4)O3)CC[C@H]2O[C@@H]1[C@@H](O)C[C@H](C)[C@H]1O[C@@]2(CCCCO2)CC[C@H]1C [okadaic acid, reference compound] |  |  |  |  |  | inhibition of PTPA/PP2A ATPase activity ([2]; FIG. 5A): inhibited |
| ATP [ATP/Mg^2+, reference compound] |  |  |  |  |  | effect of ATP/Mg2+ on PP2A pSer activity (PP2A A-C dimer [3]; with PTPA or mutants, FIG. 6D): did not effect |
| phosphotyrosyl phosphatase activator (protein, UniProt Q15257 2-358, looked up, His6 tag) Serine/threonine-protein …: AEGERQPPPDSSEEAPPATQNFIIPKKEIHTVPDMGKWKRSQAYADYIGFILTLNEGVKGKKLTFEYRVSEMWNEVHEEKEQAAKQSVSCDECIPLPRAGHCAPSEAIEKLVALLNTLDRWIDETPPVDQPSRFGNKAYRTWYAKLDEEAENLVATVVPTHLAAAVPEVAVYLKESVGNSTRIDYGTGHEAAFAAFLCCLCKIGVLRVDDQIAIVFKVFNRYLEVMRKLQKTYRMEPAGSQGVWGLDDFQFLPFIWGSSQLIDHPYLEPRHFVDEKAVNENHKDYMFLECILFITEMKTGPFAEHSNQLWNISAVPSWSKVNQGLIRMYKAECLEKFPVIQHFKFGSLLPIHPVTSG | formed a stable complex | significant ATPase activity | enhanced phosphotyrosine phosphatase activity | greatly enhanced |  | shift of substrate preference of PP2A A-C dimer from phosphorylase b to pNPP (PP2A A-C dimer [5]; stoichiometric ratio of 1:1, FIG. 6F): about 10 fold; Kd (PP2A A-C dimer [6]): ~1000 nM; catalytic turnover rate of ATPase activity ([2]; PTPA with equi-molar PP2A A-C dimer, 1 mM ATP and 5 mM Mg2+): approximately 2 per minute; Km ([2]; equi-molar amount of PP2A and PTPA, FIG. 5B): ~400 µM; ATPase activity [7]: did not exhibit any detectable ATPase activity; PP2A pSer/pThr activity relative to PP2A alone (PP2A A-C dimer [3]; about 20-to-1 molar ratio of PTPA to PP2A (maximal reduction), FIG. 6E): approximately 25%; reduction of PP2A pSer activity (PP2A A-C dimer [3]; equi-molar amount of WT PTPA, FIG. 6D): approximately 45%; effect on pSer activity of PP2A in titration (PP2A A-C dimer [3]; titrated against a fixed amount of PP2A A-C dimer, FIG. 6E): inhibited the pSer activity of PP2A in a concentration-dependent manor; pNPPase activity of PTPA-stimulated PP2A relative to PP2A in the absence of PTPA (PP2A A-C dimer [1]; equi-molar concentrations, with ATP/Mg2+): approximately 6 fold |
| V209D: missense mutant of human PTPA (protein, UniProt Q15257 2-358, looked up, variant V209D) Serine/threonine-protein …: AEGERQPPPDSSEEAPPATQNFIIPKKEIHTVPDMGKWKRSQAYADYIGFILTLNEGVKGKKLTFEYRVSEMWNEVHEEKEQAAKQSVSCDECIPLPRAGHCAPSEAIEKLVALLNTLDRWIDETPPVDQPSRFGNKAYRTWYAKLDEEAENLVATVVPTHLAAAVPEVAVYLKESVGNSTRIDYGTGHEAAFAAFLCCLCKIGVLRDDDQIAIVFKVFNRYLEVMRKLQKTYRMEPAGSQGVWGLDDFQFLPFIWGSSQLIDHPYLEPRHFVDEKAVNENHKDYMFLECILFITEMKTGPFAEHSNQLWNISAVPSWSKVNQGLIRMYKAECLEKFPVIQHFKFGSLLPIHPVTSG | significantly compromised binding | significantly lower or undetectable ATPase activity | did not stimulate |  | not observed |  |
| G205D: missense mutant of human PTPA (protein, UniProt Q15257 2-358, looked up, variant G205D) Serine/threonine-protein …: AEGERQPPPDSSEEAPPATQNFIIPKKEIHTVPDMGKWKRSQAYADYIGFILTLNEGVKGKKLTFEYRVSEMWNEVHEEKEQAAKQSVSCDECIPLPRAGHCAPSEAIEKLVALLNTLDRWIDETPPVDQPSRFGNKAYRTWYAKLDEEAENLVATVVPTHLAAAVPEVAVYLKESVGNSTRIDYGTGHEAAFAAFLCCLCKIDVLRVDDQIAIVFKVFNRYLEVMRKLQKTYRMEPAGSQGVWGLDDFQFLPFIWGSSQLIDHPYLEPRHFVDEKAVNENHKDYMFLECILFITEMKTGPFAEHSNQLWNISAVPSWSKVNQGLIRMYKAECLEKFPVIQHFKFGSLLPIHPVTSG | did not have a significant effect | significantly lower or undetectable ATPase activity | did not stimulate | do not stimulate | not observed |  |
